Publication PMC9159934

Target: BsaXI specificity subunit, WT: TRD1-CR1-TRD2-CR2 (Bacillus stearothermophilus 25B (Geobacillus sp. 25B))
Experiment: co-purification by chromatography + SDS-PAGE band densitometry; RM and S expressed separately as intein-CBD fusions, combined and purified together over chitin, DEAE, heparin, Source 15S, Source 15Q and gel filtration (Superdex 75); RM:S ratio estimated from molecular mass and band intensity on SDS-PAGE (Bio Rad gel imaging software)

- stoichiometry N: 2 RM per S
Substance: BsaXI restriction-modification subunit (RM fusion) (enzyme)
